Source: article PMC314469, “Protein Interaction Networks by Proteome Peptide Scanning” (PLoS Biology, 2004)

T1: amphyphisin SH3 (AMPH_HUMAN), P49418
T1 chain: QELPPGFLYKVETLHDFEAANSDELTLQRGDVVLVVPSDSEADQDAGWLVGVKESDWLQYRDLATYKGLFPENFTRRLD


How the values were obtained:
[1] = target: endophilin SH3 (SH3G2_HUMAN), Q99962; assay: SPOT array
[2] = target: T1, amphyphisin SH3 (AMPH_HUMAN), P49418; assay: SPOT array

Row | Binder | normalised SPOT signal, Boehringer light units (BLU); mean over the file's lines of this peptide [1] | normalised SPOT signal, Boehringer light units (BLU); mean over the file's lines of this peptide [2]
1 | PQPPPPKPPRPQPP [P35556 29-43] | 3390 | 513
2 | PQPPPRRPWASRVL [O94850 45-58] | 508 | 79.9
3 | PQQFPSRPPPPQPK [Q13443 782-796] | 5200 | 321
4 | PQSSLRRPDPGRLP [O95613 3094-3107] | 37.8 | 39.9
5 | PQTELRRPGQLIDE [Q9H1Y1 836-849] | 44.1 | 27.5
6 | PRANPRRPPRAIVP [Q8WYW1 101-114] | 94.1 | 373
7 | PRAPLHRPQKPREG [Q9P1Y6 1426-1439] | 194 | 98.2
8 | PRAVPARPPTRPRF [Q8TE87 150-164] | 17600 | 6470
9 | PRAWPRRPRRDYSI [O43385 549-562] | 221 | 1550
10 | PREFPFKPPSIYMI [Q96T84 67-81] | 519 | 32.3
11 | ASLFPKRPALEPVR [Q9Y2X7 686-699] | 926 | 41.1
12 | PREGPGRPPLDGRD [Q9H8B2 127-141] | 58.8 | 47.3
13 | PREPPRRPAFLPVG [Q13387 310-323] | 1100 | 32.1
14 | PRGVLPRPSRVLVL [Q9NYA1 7-20] | 508 | 1850
15 | PRKAPRRPGPGMSG [Q92611 83-96] | 221 | 46.8
16 | PRKLPSRPPPHYPG [O75923 185-199] | 2340 | 640
17 | PRKYPNRPSKTPLH [Q06889 258-271] | 51.5 | 79.9
18 | PRKYPNRPSKTPVH [P11161 323-336] | 57.5 | 109
19 | PRLRPMRPPPPPPA [Q9NXX8 675-689] | 4660 | 1860
20 | PRPGPSRPPPVPAP [Q9Y2G0 18-32] | 1900 | 137
21 | PRPLPPRPPAAQPP [P10323 331-345] | 3120 | 1540

Row | Binder | normalised SPOT signal, Boehringer light units (BLU); mean over the file's lines of this peptide [1] | normalised SPOT signal, Boehringer light units (BLU); mean over the file's lines of this peptide [2]
22 | ASNQPKRPPAAPEN [P48634 118-131] | 51 | 38.1
23 | PRPLPPRPPAAQPR [P58840 142-156] | 7560 | 2770
24 | PRPPPGKPPTRPGV [O94932 475-489] | 1540 | 225
25 | PRPRPRRPRQLTRA [Q9HAM8 17-30] | 206 | 72.2
26 | PRPSPARPKKSEES [O94836 564-577] | 265 | 101
27 | PRPTPRRPRPRLAR [Q9GZW5 261-274] | 1950 | 928
28 | PRQLLTRPHKAEDF [Q99973 2038-2051] | 198 | 104
29 | PRQPPSRPPRRPPW [Q99785 93-107] | 8300 | 6780
30 | PRRGPPRPPGLPYP [AAH31882 46-60] | 7980 | 1100
31 | PRRPPPRPPSRLSM [Q9BVH8 778-792] | 32000 | 27600
32 | PRRRPGRPRKLPRL [Q9H4Z2 347-360] | 96 | 32.5
33 | ASPRLRRPKSPKLP [Q96DR7 104-117] | 35 | 110
34 | PRSVFLRPQRNLES [Q9Y2L9 614-627] | 211 | 3830
35 | PRTLPRRPYKVLLA [O75064 398-411] | 865 | 109
36 | PRVDPYRPVRLPMQ [Q93074 1800-1813] | 175 | 327
37 | PSAPPAKPPSTQRA [O60904 189-203] | 254 | 53.9
38 | PSARPARPPRVRGP [O60342 30-44] | 21500 | 16100
39 | PSDHIKRPMNAFMV [O95416 4-17] | 85 | 16.2
40 | PSDLPKKPPKPEFG [Q96QH2 28-42] | 258 | 16.4
41 | PSESLPRPRRPLPT [Q9P0U4 228-241] | 405 | 264
42 | PSFHIKRPAPRPLA [O60890 702-715] | 61.1 | 18.2
